Test results reported in the DeepSol protein solubility set.

Assay: soluble on expression in E. coli; label from the status in PepcDB or PDB records
In the case of “MAHHHHHHMAECSGVADDDTTKKLLLEGDSALRQGRSYYQEALAKYTEALTHNPNSIRGLYSRAELLSMLRRRDACMSDLDQLLKLDSKHQRGLVLRSALYSQAGQLKEAVRDVEKLVEVMSEGGKAAKVQEYKAKLQQLRRYAEVWIPLQLKLQAAKQGAVTLSRDEQCACVGFLHDMIREFAKDNAGLRLQRAECALACGDNQAASEELKYVVQREPQNLDAVALGARALRALGALEQARRELRRCLSLDPEFALCAQLHKLVREQIRVTQGVEKALEEKDYGKVLKLIEGAMRFEENPPYKDQLLRWRCDAAVGMQDTKDGLPACDEAIQLYSPEDPTVVSILLQKLELYLMDGNVERAEEMLQRAQQLQPNDGKVNEYKRKMERIKRVGLRKNYYKILGVKKTADSSEIRRAYRHLAKTFHPDKLASQELSKEERAEADKRFRDINEAKEILLDDEKRARYDNGEDPTKPPGQDEHAFHGQPFNFPNEMFGQGGRFQQFYFHFD”, the “soluble on expression in E. coli” value is reported as “not soluble”.
For “MIRKCTDHGYFRGGSCQQCKRPGRYVLDDGREEKLGRFVSGTLRHFPASAGVKMDKYGWIDLNAFCEVMKKRYNWMRKEYLYALVESDEKGRYQISGPMIRARYGHSVNVDLDYDESDTPYVYYGASPEEVDVLLENGIFPIKQRYVHLSTTYEKAAEVALIHTESPVILQVDAFRAQEDGISLKLATDYIVLAEKIPPDYLFVLEDLEHHHHHH”, the “soluble on expression in E. coli” value was “soluble”.
For “MSEIIVYTQNDCPPCTFVKNYLNEHQIDFEERNINNQQYRNEMIDFDAFSTPFILLNGNPMYHVDLDEINKVLNIQD”, the “soluble on expression in E. coli” value was “not soluble”.
With “MSLGYIMDLRKELPNPHRPLIMCSAGIIIIDKKGRVLLQKRTDNNKWGLPGGSLELGESFEEAAIREAYEEVGLKVKSLSLFNVYSGKECYNKYPNGDEIYNASSIFISNDYEGEVILDGEESADAVFFKKVDIPSLEEVNPPDRIVIKDIIEKLNIEKYEGHHHHHH” the “soluble on expression in E. coli” value was “not soluble”.
With “MGSDKIHHHHHHMENYLGRLWTKAQLSEQLRKIAISLPSFIKKGSDYICTRCSSSVAKNCQLPTGNYYCRECIVFGRVTSNENLYYFPQKTFSKTNSLKWKGELTPYQNEVSEELLKGISSKENLLVHAVTGAGKTEMIYHSVAKVIDTGGSVCIASPRIDVCLELYKRLSNDFRCAITLMHGESPSYQRSPLTIATTHQLLKFYHAFDLLIVDEVDAFPYVDNPILYQGVKQALKENGTSIFLTATSTTELERKVARKELKKLHLARRFHANPLVIPEMVWVSGIQKSLQTQKLPPKLYQLINKQRQTRYPLLLFFPHISEGQVFTEILRQAFPMEKIGFVSSKSTSRLKLVQDFRDNKLSILVSTTILERGVTFPSVDVFVIQANHHLFTKSSLVQISGRVGRALERPEGLLYFLHDGKSKSMHQAIKEIKNMNHIGGF” the “soluble on expression in E. coli” value was “not soluble”.
With “MFIVKAFRDIIINIKFLQEGINMSDNKTAGQKLWENLSYNCPNVWNKIGNDEIKNTFAFCEEYKSFLDKSKTEREFVRETKKLAESKGFVSIDDVIDSGKPLKPGMKVYRVFKNKIVALAVIGSQPPEKGFNLVGAHIDSPRIDLKPNPIYEANEMVFLKTHYYGGIKKYQWVTIPLSMHGVIIRKDGSSVEIVIGEDENDTVFTITDLLPHLAAEQMQKKMSEGITGENLNILFGSIPYNDEKVKEKVKLNILKLLNEKYNITEEDLLSAELELVPSFKAKDVGLDKSMVGAYGQDDRVCAYTALRAVLDLDNVDKTAVCVLTDKEEIGSMGNTGAQSSFLENFIADICALSSEKYTDIILRRCLSNSKMLSADVNAAIDPTYEGVYDKLNSSFIGKGIVLLKYTGARGKSGASDAHAEFMGEVRKLFNERKIFWQTAELGKVDQGGGGTIAQFVANMGMDVIDCGVAVLSMHSPFEVTSKVDIYMAYKAYREFLKYIK” the “soluble on expression in E. coli” value was “soluble”.
With “MSEEVWNGNQGILSVYVSKARDLPNLNKLDKQNVMLRLRIAHMTRASNTLHRAGQNPVFHYLEKFDITPEIKPLMYVEVYCDRRKKSPLPIGRCEIDLLNAIRADPKEGYCTWYELKRSGDEFAGTIFIELTFTPKVPRLNRDDLNKEMDRLDSSMAMRPIPPLPTESEYDYVHGSTMRQITPQCVSTSHEDKDEGQPYRNGNVFSMSSKSDTAVLANSNDPIILPPTFSASMGTTSTLETNDTAISNTSNTKFHFANLRKLKEKINIFKNPDSSTNNCQNESNKVDIEALQKAIGVTSLSYDEDDDDDDENDAFYSSSHRVSHNYNQPPLPPIPTRDDMSNYSSSRNTPLVRRDRPSRLDSSSPNSHPHPSGLNSPKLPPLPTTSNSNFNSRKNSMSPTRKRPPPRLS” the “soluble on expression in E. coli” value was “soluble”.
In the case of “QAMTKTLRTPEHVYLCQRLRQARLDAGLTQADLAERLDKPQSFVAKVETRERRLDVIEFAKWMAACEGLDVVSEIVATIAEGRAQA”, the “soluble on expression in E. coli” value is reported as “soluble”.
In the case of “MPRDNSSSSRRRRGSKRCPTGMSSNKTSRSTSSSSVTSSSGHGASSFSEDSSVRSVTNSVRSTRSAGSIMSMASAEASVVAPDLTIYHGDRKQSYQLADKGKMVVINRKNGVIVYMLRCVDGRRVYIEKSSEGASLILTNQRGKVIKALAGHY”, the “soluble on expression in E. coli” value is reported as “not soluble”.
In the case of “YPFYAQYNYDSPREATGKIVCANCHLAKKTVEIEVPQAVLPDTVFKAVVKVPYDLDIQQVQADGSPSGLNVGAVLMLPEGFKLAPPERVDEELMEEVGDFYYLVTPYSETDENILLAGPLPGEDYQEMIFPILSPNPATDAGVYFGKYSIHLGGNRGRGQVYPTGELSNNNAFSASIAGTIAAIEDNGFGFDVTIQPEDGDAVVTSILPGPELIVAVGDTVEAGQLLTTNPNVGGFGQMDSEIVLQSSS”, the “soluble on expression in E. coli” value is reported as “soluble”.
In the case of “MTNFKDNDGDGTKLHVVMFPWLAFGHMVPYLELSKLIAQKGHKVSFISTPRNIDRLLPWLPENLSSVINFVKLSLPVGDNKLPEDGEATTDVPFELIPYLKIAYDGLKVPVTEFLESSKPDWVLQDFAGFWLPPISRRLGIKTGFFSAFNGATLGILKPPGFEEYRTSPADFMKPPKWVPFETSVAFKLFECRFIFKGFMAETTEGNVPDIHRVGGVIDGCDVIFVRSCYEYEAEWLGLTQELHRKPVIPVGVLPPKPDEKFEDTDTWLSVKKWLDSRKSKSIVYVAFGSEAKPSQTELNEIALGLELSGLPFFWVLKTRRGPWDTEPVELPEGFEERTADRGMVWRGWVEQLRTLSHDSIGLVLTHPGWGTIIEAIRFAKPMAMLVFVYDQGLNARVIEEKKIGYMIPRDETEGFFTKESVANSLRLVMVEEEGKVYRENVKEMKGVFGDMDRQDRYVDSFLEYLVTNR”, the “soluble on expression in E. coli” value is reported as “soluble”.
With “MSKPGQTILVALRKMIASGELAAGERLMEVPTAELFGVSRMPVRMAFRTLEQEGLLVPFGGRGFQVRSISPQEIAGAVDVRGVLEGLAARQMAERGLTQDARDALEACLVQGDALFDKGYVTEDDLEVYHDMNMRLHQVIVAGSGNRAIADALARNDHLPFASVTALAVDRHNLIREYRRFNFAHMQHHAVVDALINGQGARAEALMREHANATLRYADIFGAGVHERMKVIQRPD” the “soluble on expression in E. coli” value was “not soluble”.
With “MARDALTDALTVGELRRRVHALVLGKRQRVYSGAMFLVEVVHHPELSAMLGLEDNKLLLAMIAQRLQMQSDYFQVARHSSDSFMVWAPDLDPRSARDVAPEVLDALSQPYELRGQPLIVGFRLSGALYAQHGACFDELERSLHIAMLHLDESAGAAWNMFEPSMLEHQRHYQGLEHHHHHH” the “soluble on expression in E. coli” value was “not soluble”.
With “MDPRQFEHTVVADNDIHSIVMSYLLHNCFNETADSLASSTGVKQPAIDRDNMERRKQIIHFILERKALKAFELTEQLAQDLLEKNKDLQFDLLCLHFVELICAGNCTEALKFGKTRLAPFGKVKKYVEKLEDVMALLAYEDPEKSPMFHLLSSEYRQQVADNLNRTILEHTNHPSYTPMERIIQQVTVVRQYLTEENGKDAFPPFSLKDSLKG” the “soluble on expression in E. coli” value was “soluble”.
For “SAARRALKAVLVDLNGTLHIEDAAVPGAQEALKRLRATSVMVRFVTNTTKETKKDLLERLKKLEFEISEDEIFTSLTAARNLIEQKQVRPMLLLDDRALPEFTGVQTQDPNAVVIGLAPEHFHYQLLNQAFRLLLDGAPLIAIHKARYYKRKDGLALGPGPFVTALEYATDTKAMVVGKPEKTFFLEALRDADCAPEEAVMIGDDCRDDVDGAQNIGMLGILVKTGKYKAADEEKINPPPYLTCESFPHAVDHILQHLL”, the “soluble on expression in E. coli” value was “soluble”.
In the case of “MSLFIISQVFSPEGQRVLTMQFTKWFIALPLAVTALSGCSLLERLVYRIDINQGNYVDQQSVDQLKFGMSKDQVRFVLGSPMLVENGYPDTWYYIYHHTQGHNDPVQKNLIVKFNDGGKLVNVAGDFPAGDSFFEGVNEGHHHHHH”, the “soluble on expression in E. coli” value is reported as “soluble”.
In the case of “MGSDKIHHHHHHMHTGPTVFKQLLQFLPRYEFNLCVRRHRGEYREKKFSTYDQFLCLAYAQMAGRESLRDIETCLNSHQEKLYHIGFRGDVSRTTLADANERRDWRIFQDFGHVLIGIAQQLYQADAISVELTQPLYAFDSTTIDLCLTLFPWAEFRKTKAAVKMHTLIDLRGPIPTWVTITTGKVHDVRMLDHLPVAKDAIYTMDRGYVDFARLHSIHKQGAFFVVRAKDNLKCQRLYSHPKDKESGVRADQIITLVTQKSKKGYPEKLRRVSYVDKERNKRLVFLTNNFEIPAATVAAIYKQRWQVELFFKWIKQHLRIKSFIGTSVNAVKSQIWVALCIYLLVAITKKKLGVPCSLYTFLQILEVNLFEKKPISSLVAEALKRNADYPERNQLNLFNY”, the “soluble on expression in E. coli” value is reported as “not soluble”.
In the case of “MNNFKLHTPTRILFGKGAIVDLRDQIPQDARVLITYGGGSVKKTGVLAQVQEALKGLDVREFGGIEPNPSYETLMKAVQLVRDENITFLLAVGGGSVLDGTKFIAAAAQYTDGVDPWHILETGGTEIRSAIPMGSVLTLPATGSESNAGAVISRKTTGDKQAFHSSFVQPVFAVLDPVYTYTLPPRQVANGVVDAFVHTVEQYVTYPVNGKIQDRFAEGILLTLIEEGPKALQEPENYDVRANVMWAATQALNGLIGAGVPQDWATHMLGHELTAMHGLDHAQTLAIVLPALWNEKRDVKRAKLLQYAERVWNITDGSDDERIDAAIAATRRFFEQMGVPTHLSDYGLDGSTIPALLAKLEAHGCINLGENQDITLDVSRRIYEAAR”, the “soluble on expression in E. coli” value is reported as “not soluble”.
With “MAHHHHHHMQANLWLKGQTSTPLQRICDPVPNLLISQSSQGGQRALWLLHRPESVLGLVVSPQWQGESGDHELCDASVVSKRKIVRVMKHLHSLPFRVAGSSPLRPPMVVHKNHLVGWRIDGKAAPLYAHTLDQLAKLKPTQFKTIEPKNAFICRTYYEWDNWKEVSMEPGWTWHHVDEEIANNILDGTLTFDGLRATATDTP” the “soluble on expression in E. coli” value was “soluble”.
In the case of “MTNIFTPIEEALEAYKNGEFLIVMDDEDRENEGDLIMAAELITQEKMAFLVRYSSGYVCVPLSEERANQLELPPMLANRSDRHGTAYTITCDFAEGTTTGISAHDRALTTRSLANPNSKPQDFIKPGHILPLRAVPGLLKKRRGHTEAAVQLSTLAGLQPAGVICELVRDEDGLMMRLDDCIQFGKKHGIKIININQLVEYISK”, the “soluble on expression in E. coli” value is reported as “soluble”.
In the case of “MGSDKIHHHHHHMSILGLFGCDNGRNIAIICKNNPEICADLHKDSWCLAEKTQLIRDRYTLKDTTHPTGKQLYLQLTYLEDYSRCIELAAGVQHIIHTSRTADRARAFRLSTENLTQLQEQTRERQDPFMSYYQWTRFGDTQALNRLLEHENAGEVTDPFLLAQIATYYSNRDAIKSQQLYLKVLSEIQYDDFDVNWLLGLASTFRHTQQFDKTYMLTKANLLLTQQKYSEDKMLALLSNNKTLAAKLDKYAQTLIDALKNGNYSTSSVRKWLEPAPQILPAETITTEPVPEK”, the “soluble on expression in E. coli” value is reported as “not soluble”.
In the case of “MKPKEDREWEKFKTKHITSQSVADFNCNRTMNDPAYTPDGQCKPINTFIHSTTGPVKEICRRATGRVNKSSTQQFTLTTCKNPIRCKYSQSNTTNFICITCRDNYPVHFVKTGKC”, the “soluble on expression in E. coli” value is reported as “soluble”.
